Data as given in article PMC7373347 (Current protocols in cell biology, 2020).
Like-named read-outs stand apart in the source and are kept apart here.

B1: human DHHC15 (Palmitoyl Acyl Transferase, hDHHC15) fused to mVenus (enzyme, UniProt Q96MV8 1-337, looked up)
chain: MRRGWKMALSGGLRCCRRVLSWVPVLVIVLVVLWSYYAYVFELCLVTVLSPAEKVIYLILYHAIFVFFTWTYWKSIFTLPQQPNQKFHLSYTDKERYENEERPEVQKQMLVDMAKKLPVYTRTGSGAVRFCDRCHLIKPDRCHHCSVCAMCVLKMDHHCPWVNNCIGFSNYKFFLQFLAYSVLYCLYIATTVFSYFIKYWRGELPSVRSKFHVLFLLFVACMFFVSLVILFGYHCWLVSRNKTTLEAFCTPVFTSGPEKNGFNLGFIKNIQQVFGDKKKFWLIPIGSSPGDGHSFPMRSMNESQNPLLANEETWEDNEDDNQDYPEGSSSLAVETET
B2: human DHHC15 (Palmitoyl Acyl Transferase, hDHHC15), purified, tag cleaved (enzyme, UniProt Q96MV8 1-337, looked up)
chain: B1 chain

Legend:
SEC [1] = biological target: the molecule itself; experiment: SEC
SEC [2] = biological target: the molecule itself; experiment: SEC; remark: listed apart in the source

Row | Protein | stoichiometry N (SEC [1]) | stoichiometry N (SEC [2])
1 | B1 | 2 | 
2 | B2 |  | 2
